The record followed here is PMC7427095 (2020).

Where “and” joins values, the source holds several entries; their conditions need not be identical. Equal entries are not always repeated.

Test [1] concerns the target HA4-AsLOV2 (SS58 insertion, V416L mutant) (Avena sativa). The experiment in a line: BLI; Octet RED96e; 6x-histidine tagged OptoMB variant loaded on Ni-NTA sensors, YFP-SH2 in solution at several concentrations; Buffer A (Tris 50 mM pH 8.0, NaCl 150 mM); illumination: ambient (ambient laboratory light and the instrument's internal light sufficed to trigger the lit conformation of the light-sensitive constructs); binding and unbinding curves fitted together to a mass-action model; single experiments.

Test [2] deals with His6-HA4-AsLOV2 (SS58 insertion): αSH2-OptoMB (Avena sativa). Described as above.
Test [3] has as its target His6-SUMO-HA4-AsLOV2 (SS58 insertion, V416I, G528A, N538E mutant) (Avena sativa). Described as above.
Test [4] has as its target His6-HA4-AsLOV2 (SS58 insertion, C450V mutant) (Avena sativa). The test is described as above.
Test [5] has as its target HA4-AsLOV2 (SS58 insertion, V416L mutant) (Avena sativa). The test is described as follows: BLI; Octet RED96e; 6x-histidine tagged OptoMB variant loaded on Ni-NTA sensors, YFP-SH2 in solution at several concentrations; Buffer A (Tris 50 mM pH 8.0, NaCl 150 mM); illumination: 450 nm light (blue LED panel above the plate, lid open); binding and unbinding curves fitted together to a mass-action model; single experiments.

For test [6], the target named is His6-HA4-AsLOV2 (SS58 insertion, C450V mutant) (Avena sativa). The description is as above.
Test [7] has as its target T1, OptoMB_(C450V), His-tagged (Avena sativa, UniProt O49003 408-543, C450V). The test is described as follows: BLI; DARK conformation: Octet RED96e, no external light source; His-tagged OptoMB_(C450V) loaded on Ni-NTA sensors, YFP-SH2 in solution; Buffer A (Tris 50 mM pH 8.0, NaCl 150 mM).
The target of test [8] is T2, OptoMB_(V416L), His-tagged (Avena sativa, UniProt O49003 408-543, V416L). The experiment in a line: BLI; light.
Test [9] addresses T1, OptoMB_(C450V), His-tagged. The test is described as follows: BLI; dark.
Test [10] deals with T2, OptoMB_(V416L), His-tagged. The experiment in a line: BLI; light. This is another data set of the same source.
Test [11] deals with Monobody HA4 (6x-histidine tagged). The experiment in a line: BLI; Octet RED96e; His-tagged HA4 loaded on Ni-NTA sensors, YFP-SH2 in solution; Buffer A (Tris 50 mM pH 8.0, NaCl 150 mM); state of illumination not given ('–').
Test [12] addresses T1, OptoMB_(C450V), His-tagged. The experiment in a line: BLI; dark. The source holds these as a separate data set.
For test [13], the target named is αSH2 OptoMonobody (OptoMB), His-tagged, wild-type AsLOV2 (Avena sativa) (UniProt O49003). The experiment in a line: BLI; LIGHT conformation: Octet RED96e with the lid open and a blue LED panel above the plate (for the V416I-G528A-N538E variant pre-illumination); His-tagged OptoMB variants loaded on Ni-NTA sensors, YFP-SH2 in solution; Buffer A (Tris 50 mM pH 8.0, NaCl 150 mM).

Test [14] addresses T2, OptoMB_(V416L), His-tagged. The description is as above.

B1: YFP-SH2 (fusion of yellow fluorescent protein and the SH2 domain of human Abl kinase), purified (domain or fragment)
chain: SLEKHSWYHGPVSRNAAEYLLSSGINGSFLVRESESSPGQRSISLRYEGRVYHYRINTASDGKLYVSSESRFNTLAELVHHHSTVADGLITTLHYPAPKRNKPTVYGVSPNY
On to B1, for which the equilibrium dissociation constant (Kd) in test [1] is 87 µM; in test [2], above 100 µM; in test [3], above 100 µM; in test [4], 60 nM and 230 nM; in test [5], 60 µM and 42 µM; in test [6], 270 nM. Moreover, the koff in test [1] was 0.25 s⁻¹; in test [4] it was 0.006 s⁻¹ and 0.013 s⁻¹; in test [5], 0.2 s⁻¹ and 0.24 s⁻¹; in [6], 0.013 s⁻¹. Besides, the kon is 2900 M⁻¹ s⁻¹ in [1]; below 1000 M⁻¹ s⁻¹ in test [2]; below 1000 M⁻¹ s⁻¹ in test [3]; 110000 M⁻¹ s⁻¹ and 56000 M⁻¹ s⁻¹ in [4]; 3300 M⁻¹ s⁻¹ and 5800 M⁻¹ s⁻¹ in test [5]; 48000 M⁻¹ s⁻¹ in test [6].

B2: YFP-SH2, purified (fusion of YFP and the SH2 domain of human Abl kinase) (domain or fragment)
chain: SLEKHSWYHGPVSRNAAEYLLSSGINGSFLVRESESSPGQRSISLRYEGRVYHYRINTASDGKLYVSSESRFNTLAELVHHHSTVADGLITTLHYPAPKRNKPTVYGVSPNY
As for B2, the Kd in test [7] was 190 nM; in [10], 86.7 µM; in [11], 230 nM; in test [12], 56.9 nM; in [13], above 100 µM; in test [14], 63 µM. Also, the koff in test [7] came to 0.01 s⁻¹; in [8], 0.254 s⁻¹; in test [9] it was 0.00599 s⁻¹; in [11], 0.0145 s⁻¹; in test [14] it was 0.23 s⁻¹. Further, the kon in [7] is 71000 M⁻¹ s⁻¹; in [11], 63100 M⁻¹ s⁻¹; in test [13], below 1000 M⁻¹ s⁻¹; in test [14] it was 4000 M⁻¹ s⁻¹.
